The values that follow come from publication PMC9972320.

One data set addresses MSI1 RRM12 (human, UniProt O43347 20-191). Kind of data set: ITC; 3 mM MgCl2; ITC: 20 mM HEPES pH 7.5, 150 mM NaCl, 3 mM MgCl2, 25 C; […]. The conditions noted are these: protein: recombinant, tags: GST tag (pGEX-6p-1) removed by PreScission.
Another data set deals with MSI1 RRM12 F63A/F65A (human, UniProt O43347 20-191, F63A;F65A). The experiment in a line: ITC; not impaired; 3 mM MgCl2; ITC: 20 mM HEPES pH 7.5, 150 mM NaCl, 3 mM MgCl2, 25 C; 30 uM RNA in cell, 600 uM protein titrant. The note with it: protein: recombinant; tags: GST tag removed by PreScission; three-way junction with P4 and pseudoknots. In general terms: ITC needs no label: the signal is the heat of the interaction.
MSI1 RRM12 F63A/F65A, sequence (O43347 20-191 F63A/F65A): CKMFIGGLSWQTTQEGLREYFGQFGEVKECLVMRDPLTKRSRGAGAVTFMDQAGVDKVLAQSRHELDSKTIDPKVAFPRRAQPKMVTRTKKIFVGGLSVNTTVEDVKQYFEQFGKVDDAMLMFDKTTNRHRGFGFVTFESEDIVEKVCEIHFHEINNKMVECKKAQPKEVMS

The target in the next data set is MSI1 RRM12 K21A/F23A (human, UniProt O43347 20-191, K21A;F23A). The data set is described as above. The conditions noted are these: protein: recombinant; tags: GST tag removed by PreScission; three-way junction with P4 and pseudoknots.
MSI1 RRM12 K21A/F23A, sequence (O43347 20-191 K21A/F23A): as the sequence (O43347 20-191 F63A/F65A) above, with K2A, F4A, A44F, A46F counted along it

As a reminder, the Kd is the concentration at which binding is half-saturated.

MSI1 RRM12, sequence (O43347 20-191): as the sequence (O43347 20-191 F63A/F65A) above, with A44F, A46F counted along it

B1: DENV4 xrRNA mutant (DxM) (structured_RNA)
RNA: UGUAGUCAGGCCGAGAACGCCACGGUUUGAGCAAACCGUGCUGCCUGUAGCUCCGCCAAUAAUGGGAGGCG
Take B1: the Kd in the data set with MSI1 RRM12 (folded) was 2540 ± 310 nM.

B2: DENV4 xrRNA (structured_RNA)
RNA: UGAAGUCAGGCCACUUGUGCCACGGUUUGAGCAAACCGUGCUGCCUGUAGCUCCGCCAAUAAUGGGAGGCG
With B2, in the data set with MSI1 RRM12 (folded), the binding result is recorded as “no binding”.

B3: ZIKV xrRNA2 (structured_RNA)
RNA: GAUAGUCAGGCCGAGAACGCCAUGGCACGGAAGAAGCCAUGCUGCCUGUGAGCCCCUCAGAGGACACUGAGU
Consider B3, for which the binding result in the data set with MSI1 RRM12 F63A/F65A and with MSI1 RRM12 K21A/F23A was “binds” each time. Moreover, the Kd with MSI1 RRM12 (three-way junction with P4 and pseudoknots) turned out to be 1900 ± 800 nM.

B4: ZIKV xrRNA2 P2M/P4M (structured_RNA)
RNA: GAUAGUCAGGCCCGAAAGGCCAUGGCACGGAAGAAGCCAUGCUGCCUGUGAGCCCCUCCCGAAAGGGAGU
For the molecule B4, the binding result with MSI1 RRM12 (folded) is “no binding”.
